Results as given in patent publication US20110207796A1, “ALPHA-SYNUCLEIN KINASE” (Elan Pharma International Limited, priority 2008, published 2011).

Test system: synuclein phosphorylation
Test: overexpression of PLK family members with WT-synuclein in HEK-293 cells, phospho-synuclein ELISA
Format: cell-based, human
Details: for Proportion of total synuclein that is phoshorylated at ser-129: 48 hours post-transfection, with WT-synuclein; for Fold Change in Percent Synuclein Phosphorylation: relative to endogenous kinase (2.0%)
Protocol: HEK-293 naïve cells were transfected with an expression vector encoding PLK1, PLK2, PLK3, or PLK4 under the control of a CMV promoter, or empty vector, together with an expression vector encoding WT-synuclein. All vectors had the sequence coding for the protein of interest. Transfection was accomplished using Lipofectamine 2000 (Invitrogen, Carlsbad, Calif.) with 0.08 μg vector. Cells were washed and harvested 48 hours post-transfection. A Micro BCA (Pierce) total protein assay and total synuclein and phospho-synuclein ELISAs were performed on each plate of treated cells.

Molecule | Proportion of total synuclein that is phoshorylated at ser-129 [%] | Fold Change in Percent Synuclein Phosphorylation
Over-Expressed PLK4 (protein, UniProt O00444 1-970, looked up) Serine/threonine-protein …: MATCIGEKIEDFKVGNLLGKGSFAGVYRAESIHTGLEVAIKMIDKKAMYKAGMVQRVQNEVKIHCQLKHPSILELYNYFEDSNYVYLVLEMCHNGEMNRYLKNRVKPFSENEARHFMHQIITGMLYLHSHGILHRDLTLSNLLLTRNMNIKIADFGLATQLKMPHEKHYTLCGTPNYISPEIATRSAHGLESDVWSLGCMFYTLLIGRPPFDTDTVKNTLNKVVLADYEMPSFLSIEAKDLIHQLLRRNPADRLSLSSVLDHPFMSRNSSTKSKDLGTVEDSIDSGHATISTAITASSSTSISGSLFDKRRLLIGQPLPNKMTVFPKNKSSTDFSSSGDGNSFYTQWGNQETSNSGRGRVIQDAEERPHSRYLRRAYSSDRSGTSNSQSQAKTYTMERCHSAEMLSVSKRSGGGENEERYSPTDNNANIFNFFKEKTSSSSGSFERPDNNQALSNHLCPGKTPFPFADPTPQTETVQQWFGNLQINAHLRKTTEYDSISPNRDFQGHPDLQKDTSKNAWTDTKVKKNSDASDNAHSVKQQNTMKYMTALHSKPEIIQQECVFGSDPLSEQSKTRGMEPPWGYQNRTLRSITSPLVAHRLKPIRQKTKKAVVSILDSEEVCVELVKEYASQEYVKEVLQISSDGNTITIYYPNGGRGFPLADRPPSPTDNISRYSFDNLPEKYWRKYQYASRFVQLVRSKSPKITYFTRYAKCILMENSPGADFEVWFYDGVKIHKTEDFIQVIEKTGKSYTLKSESEVNSLKEEIKMYMDHANEGHRICLALESIISEEERKTRSAPFFPIIIGRKPGSTSSPKALSPPPSVDSNYPTRERASFNRMVMHSAASPTQAPILNPSMVTNEGLGLTTTASGTDISSNSLKDCLPKSAQLLKSVFVKNVGWATQLTSGAVWVQFNDGSQLVVQAGVSSISYTSPNGQTTRYGENEKLPDYIKQKLQCLSSILLMFSNPTPNFH | 1.9 | 1.0
Over-Expressed PLK3 (protein, UniProt Q9H4B4 1-646, looked up) Serine/threonine-protein …: MEPAAGFLSPRPFQRAAAAPAPPAGPGPPPSALRGPELEMLAGLPTSDPGRLITDPRSGRTYLKGRLLGKGGFARCYEATDTETGSAYAVKVIPQSRVAKPHQREKILNEIELHRDLQHRHIVRFSHHFEDADNIYIFLELCSRKSLAHIWKARHTLLEPEVRYYLRQILSGLKYLHQRGILHRDLKLGNFFITENMELKVGDFGLAARLEPPEQRKKTICGTPNYVAPEVLLRQGHGPEADVWSLGCVMYTLLCGSPPFETADLKETYRCIKQVHYTLPASLSLPARQLLAAILRASPRDRPSIDQILRHDFFTKGYTPDRLPISSCVTVPDLTPPNPARSLFAKVTKSLFGRKKKSKNHAQERDEVSGLVSGLMRTSVGHQDARPEAPAASGPAPVSLVETAPEDSSPRGTLASSGDGFEEGLTVATVVESALCALRNCIAFMPPAEQNPAPLAQPEPLVWVSKWVDYSNKFGFGYQLSSRRVAVLFNDGTHMALSANRKTVHYNPTSTKHFSFSVGAVPRALQPQLGILRYFASYMEQHLMKGGDLPSVEEVEVPAPPLLLQWVKTDQALLMLFSDGTVQVNFYGDHTKLILSGWEPLLVTFVARNRSACTYLASHLRQLGCSPDLRQRLRYALRLLRDRSPA | 79.2 | 39.6
Over-Expressed PLK2 (protein, UniProt Q9NYY3 1-685, looked up) Serine/threonine-protein …: MELLRTITYQPAASTKMCEQALGKGCGADSKKKRPPQPPEESQPPQSQAQVPPAAPHHHHHHSHSGPEISRIIVDPTTGKRYCRGKVLGKGGFAKCYEMTDLTNNKVYAAKIIPHSRVAKPHQREKIDKEIELHRILHHKHVVQFYHYFEDKENIYILLEYCSRRSMAHILKARKVLTEPEVRYYLRQIVSGLKYLHEQEILHRDLKLGNFFINEAMELKVGDFGLAARLEPLEHRRRTICGTPNYLSPEVLNKQGHGCESDIWALGCVMYTMLLGRPPFETTNLKETYRCIREARYTMPSSLLAPAKHLIASMLSKNPEDRPSLDDIIRHDFFLQGFTPDRLSSSCCHTVPDFHLSSPAKNFFKKAAAALFGGKKDKARYIDTHNRVSKEDEDIYKLRHDLKKTSITQQPSKHRTDEELQPPTTTVARSGTPAVENKQQIGDAIRMIVRGTLGSCSSSSECLEDSTMGSVADTVARVLRGCLENMPEADCIPKEQLSTSFQWVTKWVDYSNKYGFGYQLSDHTVGVLFNNGAHMSLLPDKKTVHYYAELGQCSVFPATDAPEQFISQVTVLKYFSHYMEENLMDGGDLPSVTDIRRPRLYLLQWLKSDKALMMLFNDGTFQVNFYHDHTKIIICSQNEEYLLTYINEDRISTTFRLTTLLMSGCSSELKNRMEYALNMLLQRCN | 42.3 | 21.2
